B1: H183/L072 VL V27cL (antibody, name in Kabat numbering, V domains shown)
VH: QVQLVESGGGLVQPGRSLRLSCAASGFTFSNAWMHWVRQAPGKGLEWVAQIKDKGNAYAAYYAPSVKGRFTISRDDSKNSIYLQMNSLKTEDTAVYYCHYVHYASASTVLPAFGVDAWGQGTTVTVSS
VL: DIVMTQSPLSLPVTPGEPASISCQASQELLHMNRNTYLHWYQQKPGQAPRLLIYKVSNRFPGVPDRFSGSGSGTDFTLKISRVEAEDVGVYYCAQGTSVPFTFGQGTKLEIK
B2: H183/L072 VL V27cS (antibody, name in Kabat numbering, V domains shown)
VH: QVQLVESGGGLVQPGRSLRLSCAASGFTFSNAWMHWVRQAPGKGLEWVAQIKDKGNAYAAYYAPSVKGRFTISRDDSKNSIYLQMNSLKTEDTAVYYCHYVHYASASTVLPAFGVDAWGQGTTVTVSS
VL: DIVMTQSPLSLPVTPGEPASISCQASQELSHMNRNTYLHWYQQKPGQAPRLLIYKVSNRFPGVPDRFSGSGSGTDFTLKISRVEAEDVGVYYCAQGTSVPFTFGQGTKLEIK
B3: H183/L072 VL V27cY (antibody, name in Kabat numbering, V domains shown)
VH: QVQLVESGGGLVQPGRSLRLSCAASGFTFSNAWMHWVRQAPGKGLEWVAQIKDKGNAYAAYYAPSVKGRFTISRDDSKNSIYLQMNSLKTEDTAVYYCHYVHYASASTVLPAFGVDAWGQGTTVTVSS
VL: DIVMTQSPLSLPVTPGEPASISCQASQELYHMNRNTYLHWYQQKPGQAPRLLIYKVSNRFPGVPDRFSGSGSGTDFTLKISRVEAEDVGVYYCAQGTSVPFTFGQGTKLEIK
B4: H183/L072 VL V51H (antibody, name in Kabat numbering, V domains shown)
VH: QVQLVESGGGLVQPGRSLRLSCAASGFTFSNAWMHWVRQAPGKGLEWVAQIKDKGNAYAAYYAPSVKGRFTISRDDSKNSIYLQMNSLKTEDTAVYYCHYVHYASASTVLPAFGVDAWGQGTTVTVSS
VL: DIVMTQSPLSLPVTPGEPASISCQASQELVHMNRNTYLHWYQQKPGQAPRLLIYKHSNRFPGVPDRFSGSGSGTDFTLKISRVEAEDVGVYYCAQGTSVPFTFGQGTKLEIK
B5: H183/L072 VL V27cQ (antibody, name in Kabat numbering, V domains shown)
VH: QVQLVESGGGLVQPGRSLRLSCAASGFTFSNAWMHWVRQAPGKGLEWVAQIKDKGNAYAAYYAPSVKGRFTISRDDSKNSIYLQMNSLKTEDTAVYYCHYVHYASASTVLPAFGVDAWGQGTTVTVSS
VL: DIVMTQSPLSLPVTPGEPASISCQASQELQHMNRNTYLHWYQQKPGQAPRLLIYKVSNRFPGVPDRFSGSGSGTDFTLKISRVEAEDVGVYYCAQGTSVPFTFGQGTKLEIK
B6: H183/L072 VL V51G (antibody, name in Kabat numbering, V domains shown)
VH: QVQLVESGGGLVQPGRSLRLSCAASGFTFSNAWMHWVRQAPGKGLEWVAQIKDKGNAYAAYYAPSVKGRFTISRDDSKNSIYLQMNSLKTEDTAVYYCHYVHYASASTVLPAFGVDAWGQGTTVTVSS
VL: DIVMTQSPLSLPVTPGEPASISCQASQELVHMNRNTYLHWYQQKPGQAPRLLIYKGSNRFPGVPDRFSGSGSGTDFTLKISRVEAEDVGVYYCAQGTSVPFTFGQGTKLEIK
B7: H183/L072 VL V27cN (antibody, name in Kabat numbering, V domains shown)
VH: QVQLVESGGGLVQPGRSLRLSCAASGFTFSNAWMHWVRQAPGKGLEWVAQIKDKGNAYAAYYAPSVKGRFTISRDDSKNSIYLQMNSLKTEDTAVYYCHYVHYASASTVLPAFGVDAWGQGTTVTVSS
VL: DIVMTQSPLSLPVTPGEPASISCQASQELNHMNRNTYLHWYQQKPGQAPRLLIYKVSNRFPGVPDRFSGSGSGTDFTLKISRVEAEDVGVYYCAQGTSVPFTFGQGTKLEIK
B8: H183/L072 VL V27cW (antibody, name in Kabat numbering, V domains shown)
VH: QVQLVESGGGLVQPGRSLRLSCAASGFTFSNAWMHWVRQAPGKGLEWVAQIKDKGNAYAAYYAPSVKGRFTISRDDSKNSIYLQMNSLKTEDTAVYYCHYVHYASASTVLPAFGVDAWGQGTTVTVSS
VL: DIVMTQSPLSLPVTPGEPASISCQASQELWHMNRNTYLHWYQQKPGQAPRLLIYKVSNRFPGVPDRFSGSGSGTDFTLKISRVEAEDVGVYYCAQGTSVPFTFGQGTKLEIK
B9: H183/L072 VL V51D (antibody, name in Kabat numbering, V domains shown)
VH: QVQLVESGGGLVQPGRSLRLSCAASGFTFSNAWMHWVRQAPGKGLEWVAQIKDKGNAYAAYYAPSVKGRFTISRDDSKNSIYLQMNSLKTEDTAVYYCHYVHYASASTVLPAFGVDAWGQGTTVTVSS
VL: DIVMTQSPLSLPVTPGEPASISCQASQELVHMNRNTYLHWYQQKPGQAPRLLIYKDSNRFPGVPDRFSGSGSGTDFTLKISRVEAEDVGVYYCAQGTSVPFTFGQGTKLEIK
B10: H183/L072 VL V27cT (antibody, name in Kabat numbering, V domains shown)
VH: QVQLVESGGGLVQPGRSLRLSCAASGFTFSNAWMHWVRQAPGKGLEWVAQIKDKGNAYAAYYAPSVKGRFTISRDDSKNSIYLQMNSLKTEDTAVYYCHYVHYASASTVLPAFGVDAWGQGTTVTVSS
VL: DIVMTQSPLSLPVTPGEPASISCQASQELTHMNRNTYLHWYQQKPGQAPRLLIYKVSNRFPGVPDRFSGSGSGTDFTLKISRVEAEDVGVYYCAQGTSVPFTFGQGTKLEIK
B11: H183/L072 VL V27cR (antibody, name in Kabat numbering, V domains shown)
VH: QVQLVESGGGLVQPGRSLRLSCAASGFTFSNAWMHWVRQAPGKGLEWVAQIKDKGNAYAAYYAPSVKGRFTISRDDSKNSIYLQMNSLKTEDTAVYYCHYVHYASASTVLPAFGVDAWGQGTTVTVSS
VL: DIVMTQSPLSLPVTPGEPASISCQASQELRHMNRNTYLHWYQQKPGQAPRLLIYKVSNRFPGVPDRFSGSGSGTDFTLKISRVEAEDVGVYYCAQGTSVPFTFGQGTKLEIK
B12: H183/L072 VL V51E (antibody, name in Kabat numbering, V domains shown)
VH: QVQLVESGGGLVQPGRSLRLSCAASGFTFSNAWMHWVRQAPGKGLEWVAQIKDKGNAYAAYYAPSVKGRFTISRDDSKNSIYLQMNSLKTEDTAVYYCHYVHYASASTVLPAFGVDAWGQGTTVTVSS
VL: DIVMTQSPLSLPVTPGEPASISCQASQELVHMNRNTYLHWYQQKPGQAPRLLIYKESNRFPGVPDRFSGSGSGTDFTLKISRVEAEDVGVYYCAQGTSVPFTFGQGTKLEIK
B13: H183/L072 VL V27cM (antibody, name in Kabat numbering, V domains shown)
VH: QVQLVESGGGLVQPGRSLRLSCAASGFTFSNAWMHWVRQAPGKGLEWVAQIKDKGNAYAAYYAPSVKGRFTISRDDSKNSIYLQMNSLKTEDTAVYYCHYVHYASASTVLPAFGVDAWGQGTTVTVSS
VL: DIVMTQSPLSLPVTPGEPASISCQASQELMHMNRNTYLHWYQQKPGQAPRLLIYKVSNRFPGVPDRFSGSGSGTDFTLKISRVEAEDVGVYYCAQGTSVPFTFGQGTKLEIK
B14: H183/L072 VL V51I (antibody, name in Kabat numbering, V domains shown)
VH: QVQLVESGGGLVQPGRSLRLSCAASGFTFSNAWMHWVRQAPGKGLEWVAQIKDKGNAYAAYYAPSVKGRFTISRDDSKNSIYLQMNSLKTEDTAVYYCHYVHYASASTVLPAFGVDAWGQGTTVTVSS
VL: DIVMTQSPLSLPVTPGEPASISCQASQELVHMNRNTYLHWYQQKPGQAPRLLIYKISNRFPGVPDRFSGSGSGTDFTLKISRVEAEDVGVYYCAQGTSVPFTFGQGTKLEIK
B15: H183/L072 VL V51A (antibody, name in Kabat numbering, V domains shown)
VH: QVQLVESGGGLVQPGRSLRLSCAASGFTFSNAWMHWVRQAPGKGLEWVAQIKDKGNAYAAYYAPSVKGRFTISRDDSKNSIYLQMNSLKTEDTAVYYCHYVHYASASTVLPAFGVDAWGQGTTVTVSS
VL: DIVMTQSPLSLPVTPGEPASISCQASQELVHMNRNTYLHWYQQKPGQAPRLLIYKASNRFPGVPDRFSGSGSGTDFTLKISRVEAEDVGVYYCAQGTSVPFTFGQGTKLEIK

Target: T1, Human CD3eg linker (human)
T1 construct: Single-chain construct; also called recombinant human CD3
T1 chain: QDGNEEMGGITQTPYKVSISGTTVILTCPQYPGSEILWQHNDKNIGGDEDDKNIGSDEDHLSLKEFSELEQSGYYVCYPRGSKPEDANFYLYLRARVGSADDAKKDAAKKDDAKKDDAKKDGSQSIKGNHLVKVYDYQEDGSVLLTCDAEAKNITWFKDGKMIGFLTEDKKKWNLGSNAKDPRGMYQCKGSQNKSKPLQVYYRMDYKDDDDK
Experiment: SPR; fold vs parent H183/L072

Compared with B1, B2 is lower in “fold change of affinity” value: 0.8 fold for the first, 0 fold for the second.

Going from B3 to B4, the “fold change of affinity” value falls from 0.5 fold to 0.2 fold.

First: B5
Second: B6
The “fold change of affinity” value of the first is higher: 1 fold for the first, 0.4 fold for the second.

B7 and B8 are the same in “fold change of affinity” value: 0.3 fold for the first, 0.3 fold for the second.

Going from B9 to B10, the “fold change of affinity” value rises from 0 fold to 0.8 fold.

Compared with B11, B12 is lower in “fold change of affinity” value: 1.2 fold for the first, 0.4 fold for the second.

First: B13
Second: B14
The “fold change of affinity” value of the first is lower: 1.1 fold for the first, 1.4 fold for the second.

In the case of B15, the “fold change of affinity” value is reported as 0.6 fold.
